“Also recorded” adds a separate entry of the source.

Common to all, as to format: cell-based
In experiment [1] the test system is 3T3-L1 fibroblasts forced to express betaKlotho. As to the kind of experiment: Phosphorylation of FRS2 and MAPK in undifferentiated 3T3-L1 cells forced to express betaKlotho. The settings on record: 10 μM; pre-treated for 3 hours, then stimulated with FGF21. As to the method:
A betaKlotho expression vector produced by the method described in Example 4 and an empty vector used as a control, into which betaKlotho cDNA had not been inserted, were introduced into 3T3-L1 fibroblasts cultured as described in Example 1 by a lipofection method, thereby obtaining Puromycin-resistant clones. These different types of cells were stimulated with FGF21, and 10 minutes after the stimulation, a cell lysate was prepared. The activation of FRS2 and MAPK that were signaling molecules located downstream of FGFR was examined by a Western blotting method.

Experiment [2] has as its target T1, BaF3 cells that had co-expressed FGFR1c and Klotho (Mus musculus, UniProt O35082+P16092).
T1 construct: the entire-length cDNA of mouse FGFR1c had been cloned; expressed in transfected cells; host or cells: BaF3 (mouse pro-B) cells
In words: DNA synthesis in BaF3 cells co-expressing FGFR1c and Klotho. The settings on record: presence or absence of heparin. As to the method: Specifically, BaF3 cell that had co-expressed FGFR1c and betaKlotho and BaF3 cells that had co-expressed FGFR1c and Klotho were prepared by the same transformation method and under the same culture conditions as those applied in Example 4. Thereafter, FGF21 and FGF23 were added to both types of transformed cells in the presence or absence of heparin, and the amount of DNA synthesized was then measured.

Experiment [3] concerns the target T2, FGFR1c/betaKlotho-expressing BaF3 cells (Mus musculus, UniProt P16092+Q99N32).
T2 construct: the entire-length cDNA of mouse FGFR1c had been cloned; the entire-length cDNA of mouse betaKlotho was cloned into an animal cell expression vector; expressed in transfected cells; host or cells: BaF3 (mouse pro-B) cells
As to the kind of experiment: DNA synthesis (thymidine incorporation) in FGFR1c/betaKlotho-expressing BaF3 cells. As to conditions: BaF3 cells expressing FGFR1c and betaKlotho; presence or absence of heparin. As to the method: A commonly used measurement method is a cell growth stimulating activity measurement method described in Ornitz, D. M., Xu, J., Colvin, J. S., McEwen, D. G., MacArthur, C. A., Coulier, F., Gao, G. and Goldfarb, M. (1996) Receptor specificity of the fibroblast growth factor family. J Biol Chem, 271, 15292-15297. The summary thereof is as follows. FGF used as a measurement target is added to a culture solution containing a cultured cell having an FGF receptor on the surface thereof, and the obtained mixture is cultured for a certain period of time. Thereafter, a labeled thymidine is added to the culture solution, followed by further culture for a certain period of time. By measuring the amount of the labeled thymidine incorporated into polymeric DNA during the culture, the degree of FGF to activate DNA synthesis is evaluated. (In the present invention as well, this method was adopted when the activity of FGF21 was measured in Examples 4, 5, 6, 8, 9, and 10.)
FGFR1c-expressing BaF3 cells and FGFR1c- and betaKlotho-expressing BaF3 cells were prepared as follows. In the case of FGFR1c-expressing BaF3 cells, an animal cell expression vector into which the entire-length cDNA of mouse FGFR1c had been cloned (described in Ornitz, D. M., Xu, J., Colvin, J. S., McEwen, D. G., MacArthur, C. A., Coulier, F., Gao, G. and Goldfarb, M. (1996) Receptor specificity of the fibroblast growth factor family. J Biol Chem, 271, 15292-15297.) was introduced into BaF3 cells by an electroporation method. The cells were then cultured in the presence of G418 for approximately 2 weeks, so as to obtain drug-resistant clones. Thereafter, such clones were obtained as those capable of growing as a result of FGF1 stimulation. In the case of both FGFR1c- and betaKlotho-expressing BaF3 cells, the entire-length cDNA of mouse betaKlotho was cloned into an animal cell expression vector, and it was then introduced into the FGFR1c-expressing BaF3 cells. The cells were then cultured in the presence of Puromycin and G418 for approximately 2 weeks, so as to obtain drug-resistant clones. In the case of only betaKlotho-expressing BaF3 cells, a betaKlotho-expressing vector was introduced into BaF3 cells, and Puromycin-resistant clones were then obtained. The BaF3 cells, into which the aforementioned genes had been each introduced, were maintained in an RPMI1640 medium containing 10% FBS and interleukin 3 (IL3, supplied by adding a 5% condition medium of WEHI-3 cells). For the growth stimulation experiment, the cells were washed with an RPMI1640 medium, and they were then suspended in an RPMI1640 medium containing 10% FBS, followed by inoculating the suspension on a culture plate. Thereafter, the resultant cells were used.
Immediately after inoculation, BaF3 cells that had expressed each clone and only FGFR1c were stimulated by addition of FGF21 (open bar) or PBS (filled bar) used as a control in the presence of heparin, and they were then cultured for 42 hours. Thereafter, tritium-labeled thymidine was added to the culture solution, and the culture was further continued for 6 hours. Thereafter, the amount of thymidine incorporated into the cells was measured, so as to evaluate DNA synthesis. A DNA synthesis value obtained when the cells were not stimulated with FGF21 was defined as 1, and the ratio of a DNA synthesis value obtained by stimulating with FGF21 to the aforementioned DNA synthesis value was expressed using magnification. […]
(Incorporation of labelled thymidine or its analogues reports DNA synthesis.)

The target in experiment [4] is T3, humanized FGFR3c/humanized betaKlotho (hβKlotho)-expressing cells (Homo sapiens, UniProt P22607+Q86Z14, A441S/A461E/A470D/A499P/A500N/A559S/A717S/A734V/A765M/C582S/D512S/D516E/D576E/D580N/D722E/D758Q/D785E/DEL405-414/E426D/E447G/E729D/E768D/F566Y/F579Y/F591S/F767L/G446S/G448T/G548D/G773S/G774F/H721N/I440P/I494L/I698V/I726M/INS417HSQMAVHKLAKSI/INS423TV/INS780T/K420R/K464R/K501R/K583H/L398M/L425A/L457Y/L554I/L645I/L752V/M488L/N428S/N434G/N453G/N644H/P401G/P402T/P436L/P502V/P584N/P778R/Q611K/Q775P/R397K/R399K/R416D/R498K/R568Q/S432N/S468P/S578C/S781C/T435V/T450M/T473V/T504K/T581P/T590S/T753A/T757N/V503T/V523I/V642I/V670I/V751I/V754L).
T3 construct: expressed in transfected cells; host or cells: BaF3 (mouse pro-B) cells
In words: DNA synthesis in humanized FGFR3c/humanized betaKlotho-expressing BaF3 cells. The settings on record: humanized FGFR3c and humanized betaKlotho; 10 μg/ml heparin. As to the method: (§1) The homology between human FGFR3 and mouse FGFR3 at the amino acid sequence level is 93%. […] The cDNA of humanized FGFR3c was prepared from a commercially available human RNA sample (Takara Bio Inc.) by PCR. The sequence of its intracellular portion was substituted with the sequence of humanized FGFR1, and it was then introduced into an expression vector having an SRalpha promoter (pSRalpha). The FGFR3c expression vector was introduced into BaF3 cells by an electroporation method, so as to obtain FGFR3c-expressing BaF3 cells as G418-resistant clones. In the case of FGFR3c/betaKlotho-co-expressing cells, a betaKlotho expression vector was introduced into the FGFR3c-expressing BaF3 cells, so as to obtain the aforementioned cells as Puromycin-resistant clones. In the presence of heparin, humanized FGF21 was added in various types of concentrations to FGFR3c-expressing cells or FGFR3c/betaKlotho-co-expressing cells, and the amount of DNA synthesized was then measured.

Experiment [5] addresses T4, humanized FGFR3c (hR3c)-expressing BaF3 cells (Homo sapiens, UniProt P22607, A441S/A461E/A470D/A499P/A500N/A559S/A717S/A734V/A765M/C582S/D512S/D516E/D576E/D580N/D722E/D758Q/D785E/DEL405-414/E426D/E447G/E729D/E768D/F566Y/F579Y/F591S/F767L/G446S/G448T/G548D/G773S/G774F/H721N/I440P/I494L/I698V/I726M/INS417HSQMAVHKLAKSI/INS423TV/INS780T/K420R/K464R/K501R/K583H/L398M/L425A/L457Y/L554I/L645I/L752V/M488L/N428S/N434G/N453G/N644H/P401G/P402T/P436L/P502V/P584N/P778R/Q611K/Q775P/R397K/R399K/R416D/R498K/R568Q/S432N/S468P/S578C/S781C/T435V/T450M/T473V/T504K/T581P/T590S/T753A/T757N/V503T/V523I/V642I/V670I/V751I/V754L).
T4 construct: expressed in transfected cells; host or cells: BaF3 (mouse pro-B) cells; pSRalpha vector
As to the kind of experiment: DNA synthesis in humanized FGFR3c-expressing BaF3 cells. As to conditions: humanized FGFR3c only; 10 μg/ml heparin. As to the method: as §1

Experiment [6] has as its target T5, humanized FGFR1c/humanized betaKlotho (hβKlotho)-expressing cells (Homo sapiens, UniProt P11362+Q86Z14).
T5 construct: expressed in transfected cells; host or cells: BaF3 (mouse pro-B) cells; pSRalpha (FGFR1c), pcDNA3.1 (betaKlotho)
As to the kind of experiment: DNA synthesis in humanized FGFR1c/humanized betaKlotho-expressing BaF3 cells. The settings on record: humanized FGFR1c and humanized betaKlotho; 10 μg/ml heparin. From the text: (§2) In Examples 4, 5, 6, and 7, it was shown that FGF21 reacts with FGFR1c in the presence of betaKlotho. FGFR1c, betaKlotho, FGF21, and the like, which were used in an actual experimental system, were all derived from mice used as typical mammalian models. With regard to these molecules, the homology between a human and a mouse at the amino acid sequence level is extremely high (80% in FGF21, 78% in betaKlotho, and 98% in FGFR1). As a result, naturally, there are no problems regarding the compatibility of the human with the mouse, and thus it is clear that the same results as those from a murine molecule will be obtained even using a humanized molecule. In the present example, as a precautionary measure, an experimental system using a humanized molecule was constructed to confirm such respect, and an experiment was carried out. Specifically, the humanized cDNA of FGFR1c and that of betaKlotho were prepared from a commercially available human RNA sample (Takara Bio Inc.) by PCR. FGFR1c was introduced into an expression vector having an SRalpha promoter (pSRalpha), and betaKlotho was introduced into an expression vector having a CMV promoter (pcDNA3.1; Invitrogen). […] In the presence of heparin, humanized FGF21 was added in various types of concentrations to FGFR1c-expressing cells or FGFR1c/betaKlotho-co-expressing cells, and the amount of DNA synthesized was then measured.

The target in experiment [7] is T6, humanized FGFR1c (hR1c)-expressing BaF3 cells (Homo sapiens, UniProt P11362).
T6 construct: expressed in transfected cells; host or cells: BaF3 (mouse pro-B) cells; pSRalpha vector
In words: DNA synthesis in humanized FGFR1c-expressing BaF3 cells. The settings on record: humanized FGFR1c only; 10 μg/ml heparin.
Text: as §2

T5 sequence (P11362 22-822): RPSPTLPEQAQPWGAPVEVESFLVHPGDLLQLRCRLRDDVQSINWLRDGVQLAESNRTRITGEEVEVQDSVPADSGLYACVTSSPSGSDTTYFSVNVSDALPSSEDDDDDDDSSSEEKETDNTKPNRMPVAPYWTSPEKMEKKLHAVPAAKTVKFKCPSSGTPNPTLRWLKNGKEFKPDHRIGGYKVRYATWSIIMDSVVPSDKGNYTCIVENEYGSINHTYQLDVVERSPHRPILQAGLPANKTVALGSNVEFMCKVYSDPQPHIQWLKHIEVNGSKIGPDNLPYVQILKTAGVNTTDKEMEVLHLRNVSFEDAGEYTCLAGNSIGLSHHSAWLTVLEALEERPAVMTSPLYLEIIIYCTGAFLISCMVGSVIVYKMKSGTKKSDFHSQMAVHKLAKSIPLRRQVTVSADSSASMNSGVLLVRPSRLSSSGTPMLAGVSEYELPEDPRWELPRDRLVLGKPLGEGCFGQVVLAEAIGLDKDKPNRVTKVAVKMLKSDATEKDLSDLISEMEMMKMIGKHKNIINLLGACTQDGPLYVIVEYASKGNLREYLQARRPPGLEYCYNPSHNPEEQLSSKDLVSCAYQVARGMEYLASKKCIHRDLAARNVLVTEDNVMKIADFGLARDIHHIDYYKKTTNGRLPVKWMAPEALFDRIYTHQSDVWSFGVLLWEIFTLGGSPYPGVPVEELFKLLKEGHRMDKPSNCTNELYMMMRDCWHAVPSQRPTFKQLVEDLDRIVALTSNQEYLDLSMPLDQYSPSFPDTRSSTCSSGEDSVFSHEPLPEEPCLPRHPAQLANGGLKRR
T5 sequence (Q86Z14 whole entry): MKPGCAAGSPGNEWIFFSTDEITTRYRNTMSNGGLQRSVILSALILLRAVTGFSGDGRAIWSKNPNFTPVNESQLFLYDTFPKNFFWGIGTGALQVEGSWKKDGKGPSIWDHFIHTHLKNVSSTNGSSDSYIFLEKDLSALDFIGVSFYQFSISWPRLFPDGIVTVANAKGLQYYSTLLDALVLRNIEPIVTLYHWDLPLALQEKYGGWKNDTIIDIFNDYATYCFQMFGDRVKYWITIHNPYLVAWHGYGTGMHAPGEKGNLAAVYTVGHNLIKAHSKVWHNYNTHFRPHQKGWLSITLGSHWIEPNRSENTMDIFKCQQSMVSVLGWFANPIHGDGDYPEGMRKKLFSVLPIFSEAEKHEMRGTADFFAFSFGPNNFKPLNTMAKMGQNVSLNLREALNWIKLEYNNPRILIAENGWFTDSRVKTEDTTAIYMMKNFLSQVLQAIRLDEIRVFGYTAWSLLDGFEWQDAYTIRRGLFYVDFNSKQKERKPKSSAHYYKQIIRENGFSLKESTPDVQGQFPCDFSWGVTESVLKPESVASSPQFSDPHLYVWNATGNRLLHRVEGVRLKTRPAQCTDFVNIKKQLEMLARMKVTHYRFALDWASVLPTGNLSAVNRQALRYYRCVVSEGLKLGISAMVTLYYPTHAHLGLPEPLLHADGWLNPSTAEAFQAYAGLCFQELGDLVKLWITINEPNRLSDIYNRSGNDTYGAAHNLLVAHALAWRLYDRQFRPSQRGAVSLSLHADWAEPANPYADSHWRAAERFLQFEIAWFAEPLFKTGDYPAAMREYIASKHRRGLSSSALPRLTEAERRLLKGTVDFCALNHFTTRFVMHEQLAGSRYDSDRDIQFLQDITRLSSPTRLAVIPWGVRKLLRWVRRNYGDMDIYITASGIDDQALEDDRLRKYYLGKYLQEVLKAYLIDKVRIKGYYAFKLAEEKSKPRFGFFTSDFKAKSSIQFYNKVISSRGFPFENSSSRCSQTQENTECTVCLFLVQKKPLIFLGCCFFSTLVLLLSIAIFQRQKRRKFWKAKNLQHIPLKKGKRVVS
T3 sequence (P22607 other isoform, or with tags, fused parts or gaps with the stated changes): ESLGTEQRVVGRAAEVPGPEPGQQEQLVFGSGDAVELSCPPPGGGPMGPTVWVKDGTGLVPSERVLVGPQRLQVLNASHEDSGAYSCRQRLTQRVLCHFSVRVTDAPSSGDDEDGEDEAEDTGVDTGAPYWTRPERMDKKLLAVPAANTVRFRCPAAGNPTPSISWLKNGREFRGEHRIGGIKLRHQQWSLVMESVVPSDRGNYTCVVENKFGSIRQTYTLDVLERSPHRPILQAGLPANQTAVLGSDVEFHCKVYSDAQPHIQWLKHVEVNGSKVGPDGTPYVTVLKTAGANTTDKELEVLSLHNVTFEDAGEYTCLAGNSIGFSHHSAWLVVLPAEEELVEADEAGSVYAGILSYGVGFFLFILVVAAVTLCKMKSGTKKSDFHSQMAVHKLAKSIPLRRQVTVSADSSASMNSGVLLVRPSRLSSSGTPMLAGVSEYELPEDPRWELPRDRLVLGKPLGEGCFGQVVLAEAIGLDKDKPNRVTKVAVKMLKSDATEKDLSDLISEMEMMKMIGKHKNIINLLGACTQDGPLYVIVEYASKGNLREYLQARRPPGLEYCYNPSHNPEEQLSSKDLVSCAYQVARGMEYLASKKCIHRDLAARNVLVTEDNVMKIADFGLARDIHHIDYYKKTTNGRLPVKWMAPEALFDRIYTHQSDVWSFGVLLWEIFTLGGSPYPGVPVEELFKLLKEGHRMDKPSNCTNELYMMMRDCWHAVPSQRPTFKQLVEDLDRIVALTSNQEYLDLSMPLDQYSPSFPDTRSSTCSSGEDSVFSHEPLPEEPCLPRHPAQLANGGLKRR
T3 sequence (Q86Z14 whole entry, stated change not applied): as the sequence (Q86Z14 whole entry) above
T6 sequence (P11362 22-822): as the sequence (P11362 22-822) above
T2 sequence (P16092 22-822): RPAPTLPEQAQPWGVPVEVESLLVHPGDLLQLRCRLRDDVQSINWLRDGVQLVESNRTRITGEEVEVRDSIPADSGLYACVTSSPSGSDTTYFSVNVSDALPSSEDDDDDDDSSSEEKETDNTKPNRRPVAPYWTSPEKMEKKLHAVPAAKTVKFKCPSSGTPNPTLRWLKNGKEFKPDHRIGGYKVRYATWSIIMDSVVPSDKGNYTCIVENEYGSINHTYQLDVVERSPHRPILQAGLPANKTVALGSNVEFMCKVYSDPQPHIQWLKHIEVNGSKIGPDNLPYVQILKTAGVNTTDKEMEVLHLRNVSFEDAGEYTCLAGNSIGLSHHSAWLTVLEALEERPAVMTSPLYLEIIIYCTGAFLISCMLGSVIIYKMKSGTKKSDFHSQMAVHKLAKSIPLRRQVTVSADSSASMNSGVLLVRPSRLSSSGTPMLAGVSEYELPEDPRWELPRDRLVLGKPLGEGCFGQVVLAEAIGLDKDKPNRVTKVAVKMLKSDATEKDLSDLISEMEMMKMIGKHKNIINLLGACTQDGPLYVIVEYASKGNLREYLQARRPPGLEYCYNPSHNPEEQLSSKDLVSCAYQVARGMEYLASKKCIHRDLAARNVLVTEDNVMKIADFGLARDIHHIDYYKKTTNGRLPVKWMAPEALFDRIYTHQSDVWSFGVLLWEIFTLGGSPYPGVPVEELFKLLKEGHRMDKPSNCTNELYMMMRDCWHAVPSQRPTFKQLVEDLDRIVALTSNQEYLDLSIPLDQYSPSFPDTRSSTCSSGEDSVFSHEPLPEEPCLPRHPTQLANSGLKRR
T2 sequence (Q99N32 whole entry): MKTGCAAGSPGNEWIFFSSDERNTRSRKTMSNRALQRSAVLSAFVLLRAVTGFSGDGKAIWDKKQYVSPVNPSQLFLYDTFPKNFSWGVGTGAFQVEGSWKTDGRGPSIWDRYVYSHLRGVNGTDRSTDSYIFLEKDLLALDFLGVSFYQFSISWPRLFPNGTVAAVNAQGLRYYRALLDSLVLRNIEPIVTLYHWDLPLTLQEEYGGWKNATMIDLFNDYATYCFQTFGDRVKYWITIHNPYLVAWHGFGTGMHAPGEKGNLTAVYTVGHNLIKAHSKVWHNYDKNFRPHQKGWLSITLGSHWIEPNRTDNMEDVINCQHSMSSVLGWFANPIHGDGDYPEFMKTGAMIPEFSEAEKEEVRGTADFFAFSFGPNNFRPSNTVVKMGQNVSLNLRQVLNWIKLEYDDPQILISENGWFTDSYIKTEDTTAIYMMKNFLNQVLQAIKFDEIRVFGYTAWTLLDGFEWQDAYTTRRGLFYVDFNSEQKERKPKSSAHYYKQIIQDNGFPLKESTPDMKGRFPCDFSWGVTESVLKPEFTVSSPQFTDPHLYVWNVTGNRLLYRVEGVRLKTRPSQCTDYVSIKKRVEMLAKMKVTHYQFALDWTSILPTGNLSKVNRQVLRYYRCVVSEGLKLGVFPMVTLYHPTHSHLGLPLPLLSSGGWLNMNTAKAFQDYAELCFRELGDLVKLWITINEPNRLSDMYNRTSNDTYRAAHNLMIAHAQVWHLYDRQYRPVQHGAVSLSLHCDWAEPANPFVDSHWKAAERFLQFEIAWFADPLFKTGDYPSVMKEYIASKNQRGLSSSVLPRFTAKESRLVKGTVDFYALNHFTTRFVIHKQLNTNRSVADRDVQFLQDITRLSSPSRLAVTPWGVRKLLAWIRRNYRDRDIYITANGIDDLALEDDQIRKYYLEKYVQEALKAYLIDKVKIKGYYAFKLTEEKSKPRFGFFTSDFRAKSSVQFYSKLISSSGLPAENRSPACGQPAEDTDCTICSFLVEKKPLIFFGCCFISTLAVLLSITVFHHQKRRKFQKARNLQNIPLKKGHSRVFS
T4 sequence (P22607 other isoform, or with tags, fused parts or gaps with the stated changes): as the sequence (P22607 other isoform, or with tags, fused parts or gaps with the stated changes) above

For the molecule `Cc1c[nH]c(/C=C2\C(=O)Nc3ccccc32)c1CCC(=O)O` [SU5402, reference compound], the “degree of phosphorylation of FRS2 and MAPK on FGF21 stimulation after inhibitor pre-treatment” value in experiment [1] is given as “decreased”.

B1: FGF23: FGF having high structural similarity to FGF21; Klotho acts as its co-receptor (protein, UniProt Q9GZV9 25-251, looked up)
Fibroblast growth factor 23: YPNASPLLGSSWGGLIHLYTATARNSYHLQIHKNGHVDGAPHQTIYSALMIRSEDAGFVVITGVMSRRYLCMDFRGNIFGSHYFDPENCRFQHQTLENGYDVYHSPQYHFLVSLGRAKRAFLPGMNPPPYSQFLSRRNEIPLIHFNTPIPRRHTRSAEDDSERDPLNVLKPRARMTPAPASCSQELPSAEDNSPMASDPLGVVRGGRVNTHAGGTGPEGCRPFAKFI
As to B1, the “amount of DNA synthesized” value in experiment [2] is given as “able to act on FGFR1c-expressing cells”. In addition, the “DNA synthesis (thymidine incorporated into the cells)” value in experiment [3] was “did not react with FGFR1c”.

B2: humanized FGF21: FGF21 protein with human amino acid sequence, prepared in Escherichia coli from human cDNA (protein)
chain: HPIPDSSPLLQFGGQVRQRYLYTDDAQQTEAHLEIREDGTVGGAADQSPESLLQLKALKPGVIQILGVKTSRFLCQRPDGALYGSLHFDPEACSFRELLLEDGYNVYQSEAHGLPLHLPGNKSPHRDPAPRGPARFLPLPGLPPALPEPPGILAPQPPDVGSSDPLSMVGPSQGRSPSYAS
In the case of B2, the “amount of DNA synthesized (thymidine incorporation)” value in experiment [4] is “activated; also recorded: increased the amount of thymidine incorporated into the cells in a dose-dependent manner”; in experiment [5], “activated only the FGFR3c/betaKlotho-co-expressing cells”; in experiment [6] it was “activated; also recorded: increased the amount of thymidine incorporated into the cells in a dose-dependent manner”; in experiment [7], “activated only the FGFR1c/betaKlotho-co-expressing cells”.

These data come from patent US8697369B2, “Method for screening a test substance for activating a receptor associated with FGF 21 activity” (National Institute of Advanced Industrial Science and …, priority 2007, dated 2014).
